Where a chain is given by its changes, count along the chain named.
Tests used:
Assay type in all cases: biochemical
[1] = HTP-analysis of supernatants pretreated with base (MUGal hydrolysis); conditions: activity of the variant/activity of Rd3BB (SEQ ID NO: 13); challenge at pH 9.7
Method in brief: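 GLA variants secreted from yeast INVSc1; culture supernatants pre-incubated with McIlvaine buffer pH 7.0–8.2 or 200 mM bicarbonate pH 9.1–9.7 at 37° C. for 1–18 h. Residual activity: MUGal (4 mM stock) hydrolysis at pH 4.3–4.8, 37° C., 30–180 min, carbonate quench; fluorescence Ex 355/Em 448 nm.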

[2] = HTP-analysis of yeast culture supernatants, no challenge (MUGal hydrolysis); conditions: activity of the variant/activity of Rd3BB (SEQ ID NO: 13)
Method in brief: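 GLA variants were expressed in INVSc1 yeast grown in SD-Ura broth with glucose at 30° C., and culture supernatants were collected after 66-84 h. Supernatant was mixed with McIlvaine buffer pH 4.8 and MUGal (2 mM stock) in 50 mM citrate, 200 mM KCl, pH 4.6, incubated at 37° C. for 30-180 minutes, then quenched with sodium carbonate.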

[3] = HTP-analysis of supernatants pretreated with acid (MUGal hydrolysis); conditions: activity of the variant/activity of Rd3BB (SEQ ID NO: 13); challenge at pH 3.7
Method in brief: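 GLA variants were secreted from INVSc1 yeast grown 66-84 h at 30° C. in SD-Ura with 2% glucose; supernatants were mixed with McIlvaine buffer pH 3.3-4.3 and held at 37° C. for 1-3 h. Residual activity on MUGal at pH 4.8 was then measured by fluorescence.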

B1: 580 (protein)
chain: LDNGLARTPTMGWLHWERFMCNLDCQEEPDSCISEKLFMEMAERMVSEGWKDAGYEYLCIDDCWMAPQRDSEGRLQADPQRFPHGIRQLANHVHSKGLKLGIYADVGNKTCAGFPGSFGYYDIDAQTFADWGVDLLKFDGCYCDSLENLADGYKHMSLALNRTGRSIVYSCEWPLYMWPFQKPNYTEIRQYCNHWRNFADIDDSWASIKSILDWTSRNQERIVDVAGPGGWNDPDMLVIGNFGLSRDQQVTQMALWAIMAAPLFMSNDLRHISPQAKALLQDKDVIAINQDPLGKQGYQLRKGDNFEVWERPLSGDAWAVAIINRQEIGGPRSYTIPVASLGKGVACNPACFITQLLPVKRQLGFYNWTSRLKSHINPTGTVLLQLENTMQMSLKDLL
modifications: Synthetic Polypeptide sequence of Variant No. 580 of mature Human GLA
- Relative Activity of GLA Variants After Challenge at pH 9.7 [1]: ++ (++ = >5 to 10 relative activity over Rd3BB (SEQ ID NO: 13))
- Relative Activity of GLA Variants After No Challenge (NC) [2]: + (+ = 1.5 to 5 relative activity over Rd3BB (SEQ ID NO: 13))
- Relative Activity of GLA Variants After Challenge at pH 3.7 [3]: +++ (+++ = >10 relative activity over Rd3BB (SEQ ID NO: 13))

B2: 588 (protein)
chain: B1 chain with K96A, R246W
modifications: Synthetic Polypeptide sequence of Variant No. 588 of mature Human GLA
- Relative Activity of GLA Variants After Challenge at pH 9.7 [1]: + (+ = 1.5 to 5 relative activity over Rd3BB (SEQ ID NO: 13))
- Relative Activity of GLA Variants After No Challenge (NC) [2]: + (+ = 1.5 to 5 relative activity over Rd3BB (SEQ ID NO: 13))
- Relative Activity of GLA Variants After Challenge at pH 3.7 [3]: + (+ = 1.5 to 5 relative activity over Rd3BB (SEQ ID NO: 13))

B3: 583 (protein)
chain: B1 chain with S210A, R246W, A350T
modifications: Synthetic Polypeptide sequence of Variant No. 583 of mature Human GLA
- Relative Activity of GLA Variants After Challenge at pH 9.7 [1]: ++ (++ = >5 to 10 relative activity over Rd3BB (SEQ ID NO: 13))
- Relative Activity of GLA Variants After No Challenge (NC) [2]: + (+ = 1.5 to 5 relative activity over Rd3BB (SEQ ID NO: 13))
- Relative Activity of GLA Variants After Challenge at pH 3.7 [3]: + (+ = 1.5 to 5 relative activity over Rd3BB (SEQ ID NO: 13))

B4: 585 (protein)
chain: B1 chain with S210K, R246W
modifications: Synthetic Polypeptide sequence of Variant No. 585 of mature Human GLA
- Relative Activity of GLA Variants After Challenge at pH 9.7 [1]: ++ (++ = >5 to 10 relative activity over Rd3BB (SEQ ID NO: 13))
- Relative Activity of GLA Variants After No Challenge (NC) [2]: + (+ = 1.5 to 5 relative activity over Rd3BB (SEQ ID NO: 13))
- Relative Activity of GLA Variants After Challenge at pH 3.7 [3]: + (+ = 1.5 to 5 relative activity over Rd3BB (SEQ ID NO: 13))

B5: 586 (protein)
chain: B1 chain with S210N, R246W
modifications: Synthetic Polypeptide sequence of Variant No. 586 of mature Human GLA
- Relative Activity of GLA Variants After Challenge at pH 9.7 [1]: ++ (++ = >5 to 10 relative activity over Rd3BB (SEQ ID NO: 13))
- Relative Activity of GLA Variants After No Challenge (NC) [2]: + (+ = 1.5 to 5 relative activity over Rd3BB (SEQ ID NO: 13))
- Relative Activity of GLA Variants After Challenge at pH 3.7 [3]: ++ (++ = >5 to 10 relative activity over Rd3BB (SEQ ID NO: 13))

B6: 584 (protein)
chain: B1 chain with S210E, R246W
modifications: Synthetic Polypeptide sequence of Variant No. 584 of mature Human GLA
- Relative Activity of GLA Variants After Challenge at pH 9.7 [1]: ++ (++ = >5 to 10 relative activity over Rd3BB (SEQ ID NO: 13))
- Relative Activity of GLA Variants After No Challenge (NC) [2]: + (+ = 1.5 to 5 relative activity over Rd3BB (SEQ ID NO: 13))
- Relative Activity of GLA Variants After Challenge at pH 3.7 [3]: + (+ = 1.5 to 5 relative activity over Rd3BB (SEQ ID NO: 13))

B7: 581 (protein)
chain: B1 chain with R246S
modifications: Synthetic Polypeptide sequence of Variant No. 581 of mature Human GLA
- Relative Activity of GLA Variants After Challenge at pH 9.7 [1]: ++ (++ = >5 to 10 relative activity over Rd3BB (SEQ ID NO: 13))
- Relative Activity of GLA Variants After No Challenge (NC) [2]: + (+ = 1.5 to 5 relative activity over Rd3BB (SEQ ID NO: 13))
- Relative Activity of GLA Variants After Challenge at pH 3.7 [3]: ++ (++ = >5 to 10 relative activity over Rd3BB (SEQ ID NO: 13))

B8: 587 (protein)
chain: B1 chain with S210R, R246W
modifications: Synthetic Polypeptide sequence of Variant No. 587 of mature Human GLA
- Relative Activity of GLA Variants After Challenge at pH 9.7 [1]: ++ (++ = >5 to 10 relative activity over Rd3BB (SEQ ID NO: 13))
- Relative Activity of GLA Variants After No Challenge (NC) [2]: + (+ = 1.5 to 5 relative activity over Rd3BB (SEQ ID NO: 13))
- Relative Activity of GLA Variants After Challenge at pH 3.7 [3]: + (+ = 1.5 to 5 relative activity over Rd3BB (SEQ ID NO: 13))

B9: 582 (protein)
chain: B1 chain with S210A, R246W
modifications: Synthetic Polypeptide sequence of Variant No. 582 of mature Human GLA
- Relative Activity of GLA Variants After Challenge at pH 9.7 [1]: ++ (++ = >5 to 10 relative activity over Rd3BB (SEQ ID NO: 13))
- Relative Activity of GLA Variants After No Challenge (NC) [2]: + (+ = 1.5 to 5 relative activity over Rd3BB (SEQ ID NO: 13))
- Relative Activity of GLA Variants After Challenge at pH 3.7 [3]: + (+ = 1.5 to 5 relative activity over Rd3BB (SEQ ID NO: 13))

B10: 589 (protein)
chain: B1 chain with K96W, R246W
modifications: Synthetic Polypeptide sequence of Variant No. 589 of mature Human GLA
- Relative Activity of GLA Variants After Challenge at pH 9.7 [1]: + (+ = 1.5 to 5 relative activity over Rd3BB (SEQ ID NO: 13))
- Relative Activity of GLA Variants After No Challenge (NC) [2]: + (+ = 1.5 to 5 relative activity over Rd3BB (SEQ ID NO: 13))
- Relative Activity of GLA Variants After Challenge at pH 3.7 [3]: + (+ = 1.5 to 5 relative activity over Rd3BB (SEQ ID NO: 13))

B11: 520 (protein)
chain: B1 chain with A77S, R246W
modifications: Synthetic Polypeptide sequence of Variant No. 520 of mature Human GLA
- Relative Activity of GLA Variants After Challenge at pH 9.7 [1]: + (+ = 1.5 to 5 relative activity over Rd3BB (SEQ ID NO: 13))
- Relative Activity of GLA Variants After No Challenge (NC) [2]: + (+ = 1.5 to 5 relative activity over Rd3BB (SEQ ID NO: 13))
- Relative Activity of GLA Variants After Challenge at pH 3.7 [3]: + (+ = 1.5 to 5 relative activity over Rd3BB (SEQ ID NO: 13))
